# B1: unfolded OmpW, deuterated (natural protein, UniProt P0A915 22-212, looked up)
# chain: HEAGEFFMRAGSATVRPTEGAGGTLGSLGGFSVTNNTQLGLTFTYMATDNIGVELLAATPFRHKIGTRATGDIATVHHLPPTLMAQWYFGDASSKFRPYVGAGINYTTFFDNGFNDHGKEAGLSDLSLKDSWGAAGQVGVDYLINRDWLVNMSVWYMDIDTTANYKLGGAQQHDSVRLDPWVFMFSAGYRF
# modifications: partially deuterated (estimated 50 % ± 5 %)
# B2: Skp (natural protein, E. coli, UniProt P0AEU7 21-161, looked up)
# chain: ADKIAIVNMGSLFQQVAQKTGVSNTLENEFKGRASELQRMETDLQAKMKKLQSMKAGSDRTKLEKDVMAQRQTFAQKAQAFEQDRARRSNEERGKLVTRIQTAVKSVANSQDIDLVVDANAVAYNSSDVKDITADVLKQVK
# B3: unfolded OmpA, deuterated (natural protein, E. coli, UniProt P0A910 22-346, looked up)
# chain: APKDNTWYTGAKLGWSQYHDTGFINNNGPTHENQLGAGAFGGYQVNPYVGFEMGYDWLGRMPYKGSVENGAYKAQGVQLTAKLGYPITDDLDIYTRLGGMVWRADTKSNVYGKNHDTGVSPVFAGGVEYAITPEIATRLEYQWTNNIGDAHTIGTRPDNGMLSLGVSYRFGQGEAAPVVAPAPAPAPEVQTKHFTLKSDVLFNFNKATLKPEGQAALDQLYSQLSNLDPKDGSVVVLGYTDRIGSDAYNQGLSERRAQSVVDYLISKGIPADKISARGMGESNPVTGNTCDNVKQRAALIDCLAPDRRVEIEVKGIKDVVTQPQA
# modifications: partially deuterated (estimated 50 % ± 5 %)
# Key:
# Skp = molecular target: B2; test: contrast variation small-angle neutron scattering
# [1] = molecular target: the molecule itself; test: small-angle neutron scattering
Binder,stoichiometry N (Skp) [Skp monomers per uOMP],stoichiometry N [1]
B1,3,–
B2,–,3
B3,3,–

# — paper PMC4913355 (Methods in enzymology, 2015)
